{
  "source": "paper PMC5910193",
  "key": {"[1]": {"target": "PEbody with N-terminal 6x His tag (human) (UniProt P02751)", "assay": "BLI"}, "[2]": {"target": "Single4 monobody displayed on the yeast surface (human) (UniProt P02751)", "assay": "flow cytometry on cells"}},
  "data": [
    {"substance": "R-Phycoerythrin (complex)", "values": [
      {"measurement": "Kd", "setting": "[1]", "result": 5.7, "unit": "nM"},
      {"measurement": "fold R-PE binding capability against G9", "setting": "[2]", "result": 500, "unit": "fold"}
    ]}
  ]
}
